Assay in all cases: cell-based or functional assay
Test [1] has as its target Rac (active Rac-GTP, endogenous in HUVECs) (human) (UniProt P31749).
Test [2] concerns the target Cdc42 (active Cdc42-GTP, endogenous in HUVECs) (human) (UniProt P60953).
For test [3], the target named is Rac (active Rac-GTP, endogenous in NIH3T3 cells).

Cdc42 (active Cdc42-GTP, endogenous in HUVECs) (human), sequence (P60953 1-188 limits assumed): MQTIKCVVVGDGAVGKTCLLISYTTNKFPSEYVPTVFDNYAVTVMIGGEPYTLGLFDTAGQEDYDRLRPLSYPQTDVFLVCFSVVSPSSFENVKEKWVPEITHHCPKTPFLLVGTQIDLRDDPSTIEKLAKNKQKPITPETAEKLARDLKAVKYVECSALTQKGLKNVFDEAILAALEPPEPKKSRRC
Rac (active Rac-GTP, endogenous in HUVECs) (human), sequence (P31749 whole entry): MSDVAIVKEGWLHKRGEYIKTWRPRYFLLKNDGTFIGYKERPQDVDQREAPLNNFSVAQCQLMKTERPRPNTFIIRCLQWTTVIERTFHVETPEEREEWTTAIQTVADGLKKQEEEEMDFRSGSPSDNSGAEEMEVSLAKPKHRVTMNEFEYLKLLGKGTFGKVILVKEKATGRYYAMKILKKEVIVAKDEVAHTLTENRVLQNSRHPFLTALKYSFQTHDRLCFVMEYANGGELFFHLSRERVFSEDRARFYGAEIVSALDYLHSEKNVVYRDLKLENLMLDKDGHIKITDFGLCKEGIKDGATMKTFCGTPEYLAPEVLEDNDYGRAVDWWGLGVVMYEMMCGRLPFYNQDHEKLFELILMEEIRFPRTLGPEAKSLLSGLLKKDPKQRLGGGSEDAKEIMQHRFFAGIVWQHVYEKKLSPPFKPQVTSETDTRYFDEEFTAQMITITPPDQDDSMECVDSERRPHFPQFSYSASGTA

In test [1], “BNO69 (endogenous protein in HUVECs, knocked down by adenoviral antisense BNO69R) (from UniProt Q8N264 131-748) (enzyme)” returned a fold increase in active Rac in HUVECs after BNO69 knockdown with BNO69R, compared to empty vector of 1.1 fold. Moreover, the fold increase in active Cdc42 in HUVECs after BNO69 knockdown with BNO69R, compared to empty vector in test [2] worked out at 1.1 fold. “BNO69 (endogenous protein in NIH3T3 cells, knocked down by retroviral antisense BNO69R) (enzyme)”: in test [3], the increase in Rac activity (Rac-GTP pull-down) in NIH3T3 cells after inhibition of BNO69 expression with antisense BNO69R is 3 fold.

For the origin of these results see patent publication US20080119430A1.
